Publication PMC3572128

Molecular target: caspase-8 (P10 and P18 subunits reconstituted in their active form)
Assay: flow cytometry of giant unilamellar vesicles; CL-containing GUVs in PBS; caspase-8 290 nM bound to the vesicles, fluorescent Bid added at 10 to 100 nM; vesicle fluorescence recorded online

mean fluorescence of GUVs + caspase-8 + Bid (0 min): 84 a.u.
B1: full-length Bid (C15S, C28S), fluorescently labelled (natural protein)
chain: MDCEVNNGSSLRDESITNLLVFGFLQSSSDNSFRRELDALGHELPVLAPQWEGYDELQTDGNRSSHSRLGRIEADSESQEDIIRNIARHLAQVGDSMDRSIPPGLVNGLALQLRNTSRSEEDRNRDLATALEQLLQAYPRDMEKEKTMLVLALLLAKKVASHTPSLLRDVFHTTVNFINQNLRTYVRSLARNGMD
modifications: Bodipy488 or Alexa647 maleimide labelling (legends and results also say Alexa488)
